{
  "source": "paper PMC7608914",
  "key": {"[1]": {"target": "preformed complex PARP2-QFRD_Alexa488 + Nuc165 (human) (UniProt Q9UGN5)", "assay": "FRET or BRET; Alexa647-labeled HPF1 (acceptor) titrated from 18.5 μM to 0 μM into 1 μM Alexa488-labeled PARP2 (donor) alone or into the preformed PARP2–Nuc165 complex (1 μM / 100 nM); 50 mM Tris-HCl pH 8, 50 mM NaCl, 1 mM MgCl2, 0.1 mM EDTA, 0.1 mM TCEP, 0.01% NP-40; Hill model"}, "[2]": {"target": "preformed complex PARP2-WT_Alexa488 + Nuc165 (human) (UniProt Q9UGN5)", "assay": "FRET or BRET; Alexa647-labeled HPF1 (acceptor) titrated from 18.5 μM to 0 μM into 1 μM Alexa488-labeled PARP2 (donor) alone or into the preformed PARP2–Nuc165 complex (1 μM / 100 nM); 50 mM Tris-HCl pH 8, 50 mM NaCl, 1 mM MgCl2, 0.1 mM EDTA, 0.1 mM TCEP, 0.01% NP-40; Hill model"}},
  "data": [
    {"substance": "Alexa647-labeled HPF1 (from UniProt Q9NWY4 1-346) (natural protein)", "values": [
      {"measurement": "Kd", "setting": "[1]", "value": 702, "unit": "nM"},
      {"measurement": "Kd", "setting": "[2]", "value": 279, "unit": "nM"}
    ]}
  ]
}
